Test results from PMC4749557, “ETO family protein Mtgr1 mediates Prdm14 functions in stem cell maintenance and primordial germ cell formation” (eLife, 2015).
Blank lines part the entries; values can stand above or below the binder they belong to.

B1: Mb(hPRDM14_S4) displayed on the yeast surface (designed binder)
chain: VSSVPTKLEVVAATPTSLLISWDAPAVTVDLYFITYGETGGNSPVQKFTVPGSKSTATISGLKPGVDYTITVYAQYYYRGWYVGSPISINYRT
B2: human PRDM14 (residues 238–487) (domain or fragment, UniProt Q9GZV8 238-487, looked up)
chain: LPQTLDKDSLQLPEGLCLMQTVFGEVPHFGVFCSSFIAKGVRFGPFQGKVVNASEVKTYGDNSVMWEIFEDGHLSHFIDGKGGTGNWMSYVNCARFPKEQNLVAVQCQGHIFYESCKEIHQNQELLVWYGDCYEKFLDIPVSLQVTEPGKQPSGPSEESAEGYRCERCGKVFTYKYYRDKHLKYTPCVDKGDRKFPCSLCKRSFEKRDRLRIHILHVHEKHRPHKCSTCGKCFSQSSSLNKHMRVHSGDR
modifications: biotin (biotin-acceptor tag)
notes: vector based on p28BIOH-LIC; expression vector from the Structural Genomics Consortium; also called hPRDM14; source: E. coli BL21 (DE3) with pBirACm and 50 μM biotin, purified (Ni-Sepharose); not shown: biotin-acceptor tag, N-terminal, kept

What was measured:
[1] = biological target: B2; test: yeast surface display; KD of monobody clones displayed on yeast for hPRDM14; details: one partner purified
[2] = biological target: B1; test: yeast surface display; monobodies on the yeast surface with 50 nM of hPRDM14 or a homologue; details: one partner purified
[3] = biological target: T1, recombinant Prdm14 pre-SET+SET domains (residues 184–373) (mouse, UniProt E9Q3T6 184-373, biotin (biotin-acceptor tag)); test: bead-based binding assay; biotinylated Prdm14 immobilised on streptavidin M280 beads, biotinylated Mtgr1 (NHR1) in solution, detected with SAV-Dylight650 by flow cytometer; 50 mM Tris–HCl, 150 mM NaCl, pH 8, 1 mg/ml BSA, 1 mM EDTA, 0.1 mM DTT; 1:1 model; details: both partners purified
T1 construct: gene assembled from synthetic oligonucleotides in the pHBT vector; a TEV site lies between the tags and the protein; also called mouse Prdm14; source: E. coli BL21 (DE3) with pBirACm and 50 μM biotin, purified (Ni-Sepharose); not shown: biotin-acceptor tag, N-terminal, kept
T1 sequence (looked up): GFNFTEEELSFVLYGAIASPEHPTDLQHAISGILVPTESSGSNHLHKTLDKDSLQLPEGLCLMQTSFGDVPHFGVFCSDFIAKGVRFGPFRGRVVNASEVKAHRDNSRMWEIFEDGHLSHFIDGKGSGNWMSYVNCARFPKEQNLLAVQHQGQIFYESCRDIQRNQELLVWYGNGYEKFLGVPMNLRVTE

[4] = biological target: T2, recombinant Prdm14 (residues 184–373) E294K (mouse, UniProt E9Q3T6 184-373, E294K, biotin (biotin-acceptor tag)); test: bead-based binding assay; biotinylated Mtgr1 (NHR1) immobilised on streptavidin M280 beads, biotinylated Prdm14 in solution, detected with SAV-Dylight650 by flow cytometer; 50 mM Tris–HCl, 150 mM NaCl, pH 8, 1 mg/ml BSA, 1 mM EDTA, 0.1 mM DTT; 1:1 model; details: both partners purified
T2 construct: also called E294K Prdm14; source: E. coli BL21 (DE3) with pBirACm and 50 μM biotin, purified (Ni-Sepharose); not shown: biotin-acceptor tag, N-terminal, kept
T2 sequence (looked up): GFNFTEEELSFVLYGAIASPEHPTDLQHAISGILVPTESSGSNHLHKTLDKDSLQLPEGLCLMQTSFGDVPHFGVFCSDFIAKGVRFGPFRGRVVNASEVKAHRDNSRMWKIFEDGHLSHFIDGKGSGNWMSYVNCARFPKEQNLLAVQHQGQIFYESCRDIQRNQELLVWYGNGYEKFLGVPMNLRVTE

Binder: B1
Kd [1]: < 100 nM

Binder: B2
fold stronger binding than hPRDM6 and hPRDM12 [2]: ≥ 5 fold

binding result [3]: binds
B3: recombinant Mtgr1 NHR1 domain (residues 98–206) (domain or fragment, mouse, UniProt O70374 98-206, looked up)
chain: LPATCGARQLSKLKRFLTTLQQFGNDISPEIGEKVRTLVLALVNSTVTIEEFHCKLQEATNFPLRPFVIPFLKANLPLLQRELLHCARAAKQTPSQYLAQHEKLLLNTS
modifications: biotin (biotin-acceptor tag)
notes: Mtgr1 (Cbfa2t2), residues 98–206 (NHR1/TAFH domain), with H200K from a cloning artifact; pHBT vector; a TEV site lies between the tags and the protein; also called wt Mtgr1; source: E. coli BL21 (DE3) with pBirACm and 50 μM biotin, purified (Ni-Sepharose); not shown: biotin-acceptor tag, N-terminal, kept

binding result [4]: binds
B4: recombinant Mtgr1 NHR1 domain (residues 98–206) K109E (domain or fragment, mouse, UniProt O70374 98-206, looked up)
chain: LPATCGARQLSELKRFLTTLQQFGNDISPEIGEKVRTLVLALVNSTVTIEEFHCKLQEATNFPLRPFVIPFLKANLPLLQRELLHCARAAKQTPSQYLAQHEKLLLNTS
modifications: biotin (biotin-acceptor tag)
notes: Mtgr1 (Cbfa2t2), residues 98–206, K109E on the pHBT construct that carries H200K; also called Mtgr1(K109E); source: E. coli BL21 (DE3) with pBirACm and 50 μM biotin, purified (Ni-Sepharose); not shown: biotin-acceptor tag, N-terminal, kept
